Columns and labels:
[1] = target: α2βγ heterotetramer of wild-type HsIDH3 (human) (UniProt P50213); experiment: SEC-MALS; low concentration (2 mg/ml); Superdex 200 10/300 GL, 24 °C, 10 mM HEPES pH 7.4, 200 mM NaCl, 5 mM β-ME
[2] = target: α2βγ heterotetramer of wild-type HsIDH3 (human) (UniProt P50213); experiment: SEC-MALS; high concentration (12 mg/ml); Superdex 200 10/300 GL, 24 °C, 10 mM HEPES pH 7.4, 200 mM NaCl, 5 mM β-ME

Question: With “α2βγ heterotetramer of wild-type HsIDH3 (from UniProt P50213 28-366; O43837 35-385; P51553 40-393) (complex)” as the substance, how does the stoichiometry N (heterotetramers in the heterooctamer) [1] read?
Answer: 2

Question: And the stoichiometry N (heterotetramers in the heterooctamer) [2]?
Answer: 2

Source: paper PMC7752914
